The record followed here is a protein production outcome set (Wang et al. 2014).

A short description of this data set: label from the status in PepcDB records.
Consider “PLKRSLPPDTAITKTDRVTVKGEEVPYEVTTGTQPVYGDDDTAVASLHYTYYRRSDVDDRSGRPLMISFNGGPGSGSLWMHLGYTSPKHLLISDEGYPVQPYGVEDNNQSIIDVADIVYVNPVNTGFSRVIDDDTDAEQFFGVNADVDYLADWIDTFISRHGRWRSPKYLIGESYGTTRVAGLAGELQNSHWTYLNGVILVSPTGLGMEPAGPSPRSEALKLPYYAATAWYHEQLPDALQSRDLQALLSEVEDYTIEEYIPAVTRGGFVEDARRQAVAQQVARYSGLSEPFVLDHNLAVPADAFWKELLQDEGRTVGRLDSRYEGIDVTNAGSEYDYPAELTAWNHAFTPAINHYLRDDLGFTTDLQYNTFGNVYPWDETENNTGAQLREAMAQNPYLHVMVQSGYYDGATDYFSAKYVMWNLGTRETMRDRLRFEGYRSGHMMYLRSEDLATSNEDIRTFIEESIPDEGTPARYGRNR”, for which the protein production entry was “failed”.

With “KGDRLGAVVEWQDNTEALRLKAEADARALEESRVAGENARIRSALDNCTTNVMIADNDRRIIYMNHSVTDMLRGAESDLRKALPNFEVRRLIGSTMDEFHKNPAHQRDLLANLRSTYRAEIQVAGRTFSLVANPVFDADGERLGSVVEWKDRTAEVEIEREVSEIVRAASAGE”, the protein production entry is on record as “failed”.

Regarding “MHVAVRRSNTPHPLSSLRHDIVIEPLEEERPPSRFGYDMAGKALSVQPTIDPSAKLHETRLGAYTEVGARTILHEVTMGDYSYVVNDSQITYTTIGKFCSIAAMTRINPGNHPMHRATQAHFTYRSSAYFPGESDDTEFFDWRRQHHVHIGHDVWIGHGAIVLPGRNIGTGAVIAAGAIVTKDVPAYTIVAGNPARIVRRRFSEEIAGRLARLAWWDWDHDKLREALPDFRRLGIEDFLSTYEARAHSPVSKRSAVA”, the protein production result is “failed”.

As for “MPKASLIIRERGLPKREVLLSPDRQWTIGRQLDCSIRLTDAYVSRLHAVINAFLFRGQPLYFIRDAHSRNGTFLNGFPLQHSTLLHHEDVIGVGTTLLVFYYPDMFREISLDECPLEHHHHHH”, the protein production entry is listed as “not failed”.

Consider “MLGAVARGGWVYEVHAAGAGTDLYRVSLLEGYQEQRPLSAAESAALPALLPLVHAESALSEMGYFHGVMGSTADTALAYDRFVGHTRWFGGEDGTRLLNRIRTRLQRPGPVRFWNGSSPPTGEDRRAALVP”, for which the protein production result is on record as “failed”.

On to “MEHEYQRAVTRVCVQTALLLLQHGAESTVVVQMAQRLGVALGVESVECALTANAVVLTTLSDNHCITTARKNTDKGINMQMVTDVQRIVIAVEHHLYELEIAQRKLDQLKPLKYNRWLVVFMIGLSCAAFAHLSSGDWIICGITIFMLKLLYDMLFAAIPAVGFALVFNVPPKALKYCAILAALGHVTRTLLLHINMPIVFATFFATCVIGFLGVHLSHRYLAHPKAFTVAAIIPMIPGVHAYKAMISMVQIHHFGFSDALFEQMISSFINTSFILGAIVFGLALPGLLFYRQKPVV”, for which the protein production result is “failed”.

“MQFSTTPTLEGLTIVEYCGVVTGEAILGANIFRDFFAGIRDIVGGRSGAYEKELRKAREIAFEELGSQARALGADAVVGIDIDYETVGQNGSMLMVSVSGTAVKTRR”: the protein production result is reported as “not failed”.

In the case of “MAARTLPDRFIARAPVPADAPAIARLIAACQEADGDEPDASAEEVLRDWEGLDLGQEAVLVVAPDGEAAAYADVLNRRYVQLSVYGYVHPRFRGMGLGTWLVQWGEEWIQDRMHLAPAEAQVTVQHYIRASSTSALRLMEQHGYRPVRDIWVMAITLDQPPPAPEWPEGITARTFVPGLDERATYEAVEEAFGDIWGRPPSTFERWLSMTQSERKDPELWLLAVETDSGHIVGTCLGQETAGKGWIGSVGVRRPWRGRGIALALLQEVFGVYYRRGVREVELSVDAESRTGAPRLYRRAGMHVKHRYVLHRKEIRPGIDLSTTAAHS”, the protein production result is “not failed”.

As to “MLKANVFCAGPVEALILDWAGTTIDFGSLAPVYAFMELFKQEGIEVTQAEAREPMGTEKSEHIRRMLGNSRIANAWLSIKGQASNEEDIKRLYDLFAPIQTRIVAQRSQLIPGWKEVFDKLIAQGIKVGGNTGYGPGMMAPALIAAKEQGYTPASTVFATDVVRGRPFPDMALKVALELEVGHVNGCIKVDDTLPGIEEGLRAGMWTVGVSCSGNEVGLDREDWQALSSDEQQSYRQHAEQRLFNAGAHYVIDSVADLETVITDVNRRLARGEKP”, the protein production result is reported as “not failed”.

On to “MPFERFVQTGRIAKASAGPLKGRLVAIVDVIDQNRVLVDGPLTGVPRQEYRLNNLHLTKYRIKFPYTAPTRIVRKAWTESDLKAQWKVSPWSVKAQNICKRSSLNDFDRFKLRYAKRQRNKLLTIAFNTLKKRTKADGTPRVLKKDRRERLRAEKAKGGKKAAAKK”, for which the protein production result is “failed”.
